This is an account of results in patent US20090053242A1 (Amgen, published 2009).

Sequences and labels used below:
T1: human c-Mpl receptor (TPO receptor), full-length, transfected into IL-3 dependent murine 32D cells (human, UniProt P40238 26-635)
T1 sequence (looked up): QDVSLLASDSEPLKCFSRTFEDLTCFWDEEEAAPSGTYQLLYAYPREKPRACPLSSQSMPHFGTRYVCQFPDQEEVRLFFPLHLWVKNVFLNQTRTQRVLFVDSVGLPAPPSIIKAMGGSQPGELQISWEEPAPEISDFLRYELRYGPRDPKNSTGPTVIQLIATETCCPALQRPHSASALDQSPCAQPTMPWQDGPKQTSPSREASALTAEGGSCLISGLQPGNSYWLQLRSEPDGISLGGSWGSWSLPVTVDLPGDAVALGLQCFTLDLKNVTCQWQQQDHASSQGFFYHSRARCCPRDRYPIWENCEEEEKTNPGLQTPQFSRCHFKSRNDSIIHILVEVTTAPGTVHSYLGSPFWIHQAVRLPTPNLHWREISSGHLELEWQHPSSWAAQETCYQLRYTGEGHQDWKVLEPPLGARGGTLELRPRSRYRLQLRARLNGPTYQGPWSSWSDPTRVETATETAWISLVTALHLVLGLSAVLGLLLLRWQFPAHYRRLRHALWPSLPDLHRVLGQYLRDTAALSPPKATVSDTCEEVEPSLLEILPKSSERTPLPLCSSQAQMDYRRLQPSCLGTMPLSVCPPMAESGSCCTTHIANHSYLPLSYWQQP

The first assay deals with human c-Mpl receptor (TPO receptor), full-length, transfected into IL-3 dependent murine 32D cells (human) (UniProt P40238). As to the kind of experiment: cell-based or functional assay.
In turn, “TMP tandem dimer with linker of 9 glycine residues (peptide)” registered a potency in TPO-dependent cell-proliferation assay, against the monomer of over 1000 fold.

With “TMP tandem dimer with linker of 14 glycine residues (peptide)”, the potency in TPO-dependent cell-proliferation assay, against the monomer is over 1000 fold. Still for that read-out and setting: the value for “TMP tandem dimer with linker of 10 glycine residues (peptide)” was over 1000 fold.

Another assay concerns the target T1, human c-Mpl receptor (TPO receptor), …. As to the kind of experiment: cell-based or functional assay.
In the case of IEGPTLRQWLAARAGGIEGPTLRQWLAARA [TMP tandem dimer with linker of 2 glycine residues], the “potency in TPO-dependent cell-proliferation assay, against the monomer” value was over 1000 fold.

Take IEGPTLRQWLAARAGGGGGGGIEGPTLRQWLAARA [TMP tandem dimer with linker of 7 glycine residues]: the “potency in TPO-dependent cell-proliferation assay, against the monomer” value was over 1000 fold.

With IEGPTLRQWLAARAGGGGGIEGPTLRQWLAARA [TMP tandem dimer with linker of 5 glycine residues], the “potency in TPO-dependent cell-proliferation assay, against the monomer” value was over 1000 fold. On the same count and under the same terms, the value for IEGPTLRQWLAARAGGGGGGGGIEGPTLRQWLAARA [TMP tandem dimer with linker of 8 glycine residues] was over 1000 fold; that for IEGPTLRQWLAARAIEGPTLRQWLAARA [TMP tandem dimer without linker (0 glycine residues)] was over 1000 fold. Take IEGPTLRQWLAARAGPNGIEGPTLRQWLAARA [peptide 13, TMP tandem dimer with GPNG linker]: the “activity in cell-proliferation assay, against the GGGG-linked analog” value is over 10 fold less active and the “potency in cell-proliferation assay, against the monomer” value is about 100 fold. Regarding IEGPTLRQWLAARAGGGGIEGPTLRQWLAARA [TMP tandem dimer with linker of 4 glycine residues], the “potency in TPO-dependent cell-proliferation assay, against the monomer” value was over 1000 fold. Still for that read-out and setting: for IEGPTLRQWLAARAGIEGPTLRQWLAARA [TMP tandem dimer with linker of 1 glycine residue] the value was over 1000 fold; for IEGPTLRQWLAARAGGGGGGIEGPTLRQWLAARA [TMP tandem dimer with linker of 6 glycine residues], over 1000 fold; for IEGPTLRQWLAARAGGGIEGPTLRQWLAARA [TMP tandem dimer with linker of 3 glycine residues], over 1000 fold.
